Numbering of substitutions follows the chain as printed. Names may count otherwise. Where two headings read alike, the source gives them in different places. Each block holds one binder with its values, some of them ahead of it.
Tests used:
[1] = target: T1, human CCR8 (human, UniProt P51685 1-355); experiment: cell-based or functional assay
[2] = target: T2, hCCR8 (I20A) (human, UniProt P51685 1-355); experiment: flow cytometry, transfected Expi293 cells
T2 construct: also called hCCR8 (120A)
Description: (§1) In addition to the chimeras of human CCR4 and the point mutants at the N-terminal region of human CCR8 produced in Example 3, binding evaluation was also performed for point mutants at loop1 and loop2 regions of human CCR8. […] After reacting at room temperature for 3 hours, it was reacted with Alexa488-labeled Anti-human IgG antibody (Thermo Fisher Scientific) and flow cytometry analysis was performed.
(§2) In comparison to human CCR8, a mutant having binding activity of 70% or less was indicated as Δ and a mutant having binding activity of 20% or less was indicated as x.

[3] = target: hCCR8 (K193A) (human, UniProt P51685 1-355); experiment: flow cytometry, transfected Expi293 cells
Description: as §1, §2

[4] = target: hCCR8 (N188A) (human, UniProt P51685 1-355); experiment: flow cytometry, transfected Expi293 cells
Description: as §1, §2

[5] = target: hCCR8 (Y15A) (human, UniProt P51685 1-355); experiment: flow cytometry, transfected Expi293 cells
Description: as §1, §2

[6] = target: hCCR8 (S22A) (human, UniProt P51685 1-355); experiment: flow cytometry, transfected Expi293 cells
Description: as §1, §2

[7] = target: T3, loop3 hCCR4-hCCR8 (human, UniProt P51685 1-355); experiment: flow cytometry, transfected Expi293 cells
T3 construct: chimera on Expi293 cells; hCCR8 ranges derived
Description: as §1, §2

[8] = target: hCCR8 (T13A) (human, UniProt P51685 1-355); experiment: flow cytometry, transfected Expi293 cells
Description: as §1, §2

[9] = target: hCCR8 (L181A) (human, UniProt P51685 1-355); experiment: flow cytometry, transfected Expi293 cells
Description: as §1, §2

[10] = target: hCCR8 (T11A) (human, UniProt P51685 1-355); experiment: flow cytometry, transfected Expi293 cells
Description: as §1, §2

[11] = target: T4, loop1 hCCR4-hCCR8 (human, UniProt P51685 1-355); experiment: flow cytometry, transfected Expi293 cells
T4 construct: chimera on Expi293 cells; hCCR8 ranges derived; also called loop 1-human CCR4-substituted human CCR8
Description: as §1, §2

[12] = target: T5, loop2 hCCR4-hCCR8 (human, UniProt P51685 1-355); experiment: flow cytometry, transfected Expi293 cells
T5 construct: chimera on Expi293 cells; hCCR8 ranges derived; also called loop2-human CCR4-substituted human CCR8
Description: as §1, §2

[13] = target: hCCR8 (T10A) (human, UniProt P51685 1-355); experiment: flow cytometry, transfected Expi293 cells
Description: as §1, §2

[14] = target: hCCR8 (L29A) (human, UniProt P51685 1-355); experiment: flow cytometry, transfected Expi293 cells
Description: as §1, §2

[15] = target: T6, hCCR8 (L5A) (human, UniProt P51685 1-355); experiment: flow cytometry, transfected Expi293 cells
T6 construct: also called hCCR8 (LSA)
Description: as §1, §2

[16] = target: hCCR8 (S23A) (human, UniProt P51685 1-355); experiment: flow cytometry, transfected Expi293 cells
Description: as §1, §2

[17] = target: hCCR8 (K35A) (human, UniProt P51685 1-355); experiment: flow cytometry, transfected Expi293 cells
Description: as §1, §2

[18] = target: hCCR8 (Y17A) (human, UniProt P51685 1-355); experiment: flow cytometry, transfected Expi293 cells
[19] = target: T7, N-ter hCCR4-hCCR8 (human); experiment: flow cytometry, transfected Expi293 cells
T7 construct: chimera on Expi293 cells; remaining hCCR8 ranges derived from the stated swapped ranges and the 355-residue length; also called N-terminal region human CCR4-substituted human CCR8
T7 chain: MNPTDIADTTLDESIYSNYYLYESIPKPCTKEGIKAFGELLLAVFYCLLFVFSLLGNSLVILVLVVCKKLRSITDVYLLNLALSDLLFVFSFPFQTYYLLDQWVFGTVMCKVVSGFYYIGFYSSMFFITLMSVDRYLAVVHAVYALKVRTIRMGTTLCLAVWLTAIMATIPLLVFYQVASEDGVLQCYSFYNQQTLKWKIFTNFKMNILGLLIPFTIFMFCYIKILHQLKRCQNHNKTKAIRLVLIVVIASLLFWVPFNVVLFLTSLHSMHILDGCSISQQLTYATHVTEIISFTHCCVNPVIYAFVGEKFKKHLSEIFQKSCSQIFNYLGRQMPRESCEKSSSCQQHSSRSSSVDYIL

[20] = target: T4, loop1 hCCR4-hCCR8; experiment: flow cytometry, transfected Expi293 cells; remark: listed apart in the source
[21] = target: T8, human CCR4 (human, UniProt P51679 1-360); experiment: flow cytometry, transfected Expi293 cells
T8 construct: also called hCCR4
T8 sequence: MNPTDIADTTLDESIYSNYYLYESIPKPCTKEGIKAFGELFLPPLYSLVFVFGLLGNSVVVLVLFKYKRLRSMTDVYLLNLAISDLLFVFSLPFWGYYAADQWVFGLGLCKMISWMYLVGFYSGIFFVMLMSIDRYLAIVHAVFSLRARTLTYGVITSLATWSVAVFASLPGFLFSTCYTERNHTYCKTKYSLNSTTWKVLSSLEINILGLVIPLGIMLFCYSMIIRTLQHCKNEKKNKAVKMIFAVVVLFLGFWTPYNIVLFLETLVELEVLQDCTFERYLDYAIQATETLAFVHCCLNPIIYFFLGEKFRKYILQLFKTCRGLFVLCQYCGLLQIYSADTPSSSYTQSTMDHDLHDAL

[22] = target: T9, mouse CCR8 (mouse, UniProt P56484 1-353); experiment: flow cytometry, transfected Expi293 cells
T9 construct: also called mCCR8
T9 sequence: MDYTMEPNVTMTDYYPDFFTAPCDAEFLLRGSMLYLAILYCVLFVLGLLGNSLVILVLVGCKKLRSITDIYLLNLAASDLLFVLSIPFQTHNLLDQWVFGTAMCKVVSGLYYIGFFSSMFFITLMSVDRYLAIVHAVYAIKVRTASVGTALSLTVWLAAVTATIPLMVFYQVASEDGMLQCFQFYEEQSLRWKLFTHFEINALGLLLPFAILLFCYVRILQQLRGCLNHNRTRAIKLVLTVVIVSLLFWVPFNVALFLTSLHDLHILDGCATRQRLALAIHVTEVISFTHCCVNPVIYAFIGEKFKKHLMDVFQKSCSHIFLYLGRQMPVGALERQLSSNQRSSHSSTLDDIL

[23] = target: T5, loop2 hCCR4-hCCR8; experiment: flow cytometry, transfected Expi293 cells; Δ = significantly reduced vs hCCR8
[24] = target: T1, human CCR8; experiment: cell-based or functional assay; remark: listed apart in the source
[25] = target: T1, human CCR8; experiment: cell-based or functional assay; remark: listed apart in the source

T1 sequence (P51685 whole entry): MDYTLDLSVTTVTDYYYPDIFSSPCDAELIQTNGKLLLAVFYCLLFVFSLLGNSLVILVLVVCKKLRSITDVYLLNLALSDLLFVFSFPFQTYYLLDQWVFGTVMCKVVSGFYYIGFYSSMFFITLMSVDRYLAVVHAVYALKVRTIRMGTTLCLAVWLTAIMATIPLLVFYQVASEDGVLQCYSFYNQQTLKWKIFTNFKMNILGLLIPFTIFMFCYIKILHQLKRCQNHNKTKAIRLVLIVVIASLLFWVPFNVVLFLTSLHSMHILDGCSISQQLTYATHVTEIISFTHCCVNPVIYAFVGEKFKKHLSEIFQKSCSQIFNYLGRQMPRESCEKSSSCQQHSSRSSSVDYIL
Sequence of hCCR8 (Y17A) (P51685 whole entry Y17A): as the sequence (P51685 whole entry) above, with Y17A counted along it

IC50 (nM), Ca2+ influx by 200 nM hCCL1 [1]: 0.46 nM
B1: h19D7 (IGKV2-18/IGHV3-73) (antibody, V domains shown)
VH: EVQLVESGGGLVQPGGSLKLSCAASGFTFSTYAMYWVRQASGKGLEWVGRIRSKSNNYATYYADSVKDRFTISRDDSKNTAYLQMNSLKTEDTAVYYCTRGGYGNYRYAMDYWGQGTTVTVSS
VL: DIVMTQTPPSLPVNPGEPASISCRSSKSLLHSNGNTYLYWYLQKPGQSPQLLIYRVSNLASGVPDRFSGSGSGSDFTLKISWVEAEDVGVYYCMQHLEYPFTFGQGTKLEIK

binding activity in comparison to human CCR8 [2]: ≤ 70% | binding activity in comparison to human CCR8 [3]: ≤ 70% | binding activity in comparison to human CCR8 [4]: ≤ 70% | binding activity in comparison to human CCR8 [5]: ≤ 70% | binding activity in comparison to human CCR8 [6]: ≤ 70% | binding activity in comparison to human CCR8 [7]: ≤ 70% | binding activity in comparison to human CCR8 [8]: ≤ 70% | binding activity in comparison to human CCR8 [9]: ≤ 70% | binding activity in comparison to human CCR8 [10]: ≤ 70% | binding activity in comparison to human CCR8 [11]: ≤ 70% | binding activity in comparison to human CCR8 [12]: ≤ 70% | binding activity in comparison to human CCR8 [13]: ≤ 70% | binding activity in comparison to human CCR8 [14]: ≤ 70% | binding activity in comparison to human CCR8 [15]: ≤ 70% | binding activity in comparison to human CCR8 [16]: ≤ 70% | binding activity in comparison to human CCR8 [17]: ≤ 70%
B2: h19D7 (IGKV3-20/IGHV3-15 T94R) (antibody, V domains shown)
VH: B1 VH with G10A, Q13K, K19R, S41P, A81L
VL: EIVLTQSPGTLSLSPGERATLSCRSSKSLLHSNGNTYLYWYQQKPGQAPRLLIYRVSNLASGIPDRFSGSGSGTDFTLTISRLEPEDFAVYYCMQHLEYPFTFGQGTKLEIK
notes: humanized; detected with anti-human IgG

binding result [18]: no binding | binding result [19]: no binding | binding result [20]: no binding | binding result [21]: no binding | binding result [22]: no binding | binding result [23]: binds | IC50 (nM), Ca2+ influx by 200 nM hCCL1 [24]: 3.03 nM | Neutralizing Activity IC50 (nM), Ca2+ influx by 100 nM hCCL1 [25]: 1.56 nM
B3: 8F7 (antibody, V domains shown)
VH: EVQLVESGGRLVQPKRSLKLSCAASGFTFNPYAMYWIRQAPGQGLEWVARIRSKSNNYATYYADSVKDRFTISRDDSQSMLYLQMNNLKTEDTAMYYCVRGHQGTMDYWGQGTSVTVSS
VL: DIVMTQAAPSVPVTPGESVSISCRSSKSLLHSNGNTYLYWFLQRPGQSPQLLTYRMSNLASGVPDRFSGSGSGTAFTLRISRVEAEDVGVYYCMQHLEYPFTFGGGTKLEIKR
notes: mouse hybridoma antibody

From patent US20220064312A1 (SHIONOGI, published 2022)
